Laboratory results as given in the supplement of paper PMC9112550, “Optimization of the antimicrobial peptide Bac7 by deep mutational scanning” (BMC Biology, 2022).

Each sequence was assayed on Escherichia coli TOP10 (assay: shrunken log2 fold change of peptide-encoding DNA abundance (4.5 h post-induction vs induction); higher = less antimicrobial activity (less host growth inhibition)). Conditions: time post-induction: 4.5 h; library: site-saturation at positions 5, 18, 19, 20.
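Also: peptides expressed intracellularly from a pBAD plasmid library in pooled LB shake-flask culture, induced with 0.3% L-arabinose, DNA abundance read by NGS, three biological replicates, DESeq2 with apeglm shrinkage.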

Sequence	shrunken log2 fold change
RRIRTRPPRLPRPRPRPHQRPRP	-0.0533
RRIRWRPPRLPRPRPRPTGPPRP	0.217
RRIRYRPPRLPRPRPRPRIAPRP	0.00898
RRIRYRPPRLPRPRPRPSEDPRP	-0.123
RRIRIRPPRLPRPRPRPWWMPRP	-0.0772
RRIRSRPPRLPRPRPRPECAPRP	0.784
RRIRKRPPRLPRPRPRPAWIPRP	0.0453
RRIRSRPPRLPRPRPRPQQNPRP	-0.0687
RRIRSRPPRLPRPRPRPARIPRP	0.0694
RRIRWRPPRLPRPRPRPCERPRP	-0.0115
RRIRMRPPRLPRPRPRPGQQPRP	1.34
RRIRSRPPRLPRPRPRPQDRPRP	-0.0318
RRIRYRPPRLPRPRPRPFSRPRP	-0.625
RRIRNRPPRLPRPRPRPGYYPRP	-0.851
RRIRRRPPRLPRPRPRPYNIPRP	-0.464
RRIRPRPPRLPRPRPRPGQWPRP	0.236
RRIRCRPPRLPRPRPRPAPCPRP	0.122
RRIRARPPRLPRPRPRPAFEPRP	0.702
RRIRWRPPRLPRPRPRPAMQPRP	0.298
RRIRFRPPRLPRPRPRPWMRPRP	0.495
RRIRRRPPRLPRPRPRPFRPPRP	0.317
RRIRNRPPRLPRPRPRPVVSPRP	-0.153

Sequence	shrunken log2 fold change
RRIRNRPPRLPRPRPRPPIGPRP	0.106
RRIRQRPPRLPRPRPRPANYPRP	-0.0497
RRIRMRPPRLPRPRPRPPYCPRP	0.0371
RRIRRRPPRLPRPRPRPLKMPRP	0.156
RRIRIRPPRLPRPRPRPLSAPRP	-0.112
RRIRCRPPRLPRPRPRPKIDPRP	-0.0573
RRIRCRPPRLPRPRPRPALLPRP	0.292
RRIRPRPPRLPRPRPRPEKPPRP	-0.129
RRIRPRPPRLPRPRPRPCWAPRP	0.21
RRIRGRPPRLPRPRPRPPAFPRP	1.09
RRIRARPPRLPRPRPRPPVEPRP	0.292
RRIRERPPRLPRPRPRPVHHPRP	-0.954
RRIRRRPPRLPRPRPRPDPNPRP	0.0237
RRIRIRPPRLPRPRPRPKVHPRP	-0.094
RRIRFRPPRLPRPRPRPGWSPRP	0.114
RRIRVRPPRLPRPRPRPGDHPRP	-0.0257
RRIRIRPPRLPRPRPRPDRLPRP	-0.453
RRIRTRPPRLPRPRPRPISCPRP	0.0135
RRIRLRPPRLPRPRPRPVSPPRP	-0.00493
RRIRFRPPRLPRPRPRPWRTPRP	-0.0041
RRIRSRPPRLPRPRPRPHVWPRP	0.0587
RRIRTRPPRLPRPRPRPKGSPRP	-0.0414

Sequence	shrunken log2 fold change
RRIRARPPRLPRPRPRPMFAPRP	0.52
RRIRKRPPRLPRPRPRPYNSPRP	-0.49
RRIRDRPPRLPRPRPRPNNYPRP	-0.542
RRIRQRPPRLPRPRPRPFQSPRP	-0.0102
RRIRNRPPRLPRPRPRPDSAPRP	-0.126
RRIRSRPPRLPRPRPRPDFWPRP	0.506
RRIRIRPPRLPRPRPRPLWLPRP	-0.208
RRIRYRPPRLPRPRPRPLFRPRP	-0.66
RRIRDRPPRLPRPRPRPMTTPRP	-0.0624
RRIRYRPPRLPRPRPRPCWQPRP	0.013
RRIRQRPPRLPRPRPRPLSRPRP	-0.0591
RRIRMRPPRLPRPRPRPFDEPRP	-0.0062
RRIRNRPPRLPRPRPRPRHKPRP	-0.369
RRIRSRPPRLPRPRPRPQCNPRP	-0.13
RRIRWRPPRLPRPRPRPEFEPRP	0.0113
RRIRGRPPRLPRPRPRPVYIPRP	-0.194
RRIRDRPPRLPRPRPRPAQHPRP	0.288
RRIRFRPPRLPRPRPRPYMPPRP	-1.09
RRIRYRPPRLPRPRPRPADSPRP	-0.212
RRIRSRPPRLPRPRPRPMCHPRP	-0.576
RRIRHRPPRLPRPRPRPVYHPRP	-0.282
RRIRRRPPRLPRPRPRPISEPRP	0.00118

Sequence	shrunken log2 fold change
RRIRKRPPRLPRPRPRPAVSPRP	0.0687
RRIRNRPPRLPRPRPRPKDVPRP	-0.0116
RRIRNRPPRLPRPRPRPPNIPRP	-0.226
RRIRWRPPRLPRPRPRPGCSPRP	0.551
RRIRIRPPRLPRPRPRPIEDPRP	0.0806
RRIRMRPPRLPRPRPRPCFCPRP	0.0295
RRIRNRPPRLPRPRPRPNIDPRP	-0.936
RRIRCRPPRLPRPRPRPSTQPRP	-0.495
RRIRRRPPRLPRPRPRPKLKPRP	0.211
RRIRMRPPRLPRPRPRPLVSPRP	0.162
RRIRNRPPRLPRPRPRPTYRPRP	-0.0805
RRIRLRPPRLPRPRPRPDRLPRP	-0.0156
RRIRERPPRLPRPRPRPLCVPRP	-0.307
RRIRSRPPRLPRPRPRPPAKPRP	1.05
RRIRWRPPRLPRPRPRPSNIPRP	-0.699
RRIRQRPPRLPRPRPRPIFDPRP	-0.0877
RRIRGRPPRLPRPRPRPPATPRP	1.79
RRIRERPPRLPRPRPRPARNPRP	0.194
RRIRGRPPRLPRPRPRPYINPRP	-0.151
RRIRTRPPRLPRPRPRPIHNPRP	-0.714
RRIRDRPPRLPRPRPRPSEFPRP	-0.0277
RRIRYRPPRLPRPRPRPIYSPRP	-0.143

Sequence	shrunken log2 fold change
RRIRGRPPRLPRPRPRPGDWPRP	1.34
RRIRARPPRLPRPRPRPKAAPRP	0.878
RRIRSRPPRLPRPRPRPHSIPRP	-0.248
RRIRTRPPRLPRPRPRPGKVPRP	0.145
RRIRRRPPRLPRPRPRPPDSPRP	0.289
RRIRARPPRLPRPRPRPFAMPRP	0.236
RRIRDRPPRLPRPRPRPCDYPRP	-0.0874
RRIRDRPPRLPRPRPRPVQTPRP	-0.0375
RRIRNRPPRLPRPRPRPQNWPRP	-0.146
RRIRNRPPRLPRPRPRPSRVPRP	0.0304
RRIRGRPPRLPRPRPRPRQCPRP	0.216
RRIRARPPRLPRPRPRPCWTPRP	0.01
RRIRTRPPRLPRPRPRPHFTPRP	-0.149
RRIRYRPPRLPRPRPRPVQWPRP	-0.126
RRIRVRPPRLPRPRPRPVPDPRP	-0.103
RRIRPRPPRLPRPRPRPKGWPRP	1.22
RRIRVRPPRLPRPRPRPSREPRP	0.0823
RRIRMRPPRLPRPRPRPYWLPRP	-0.0329
RRIRYRPPRLPRPRPRPEFTPRP	-0.0369
RRIRYRPPRLPRPRPRPHDFPRP	-0.167
RRIRLRPPRLPRPRPRPPHCPRP	0.177
